The values that follow come from paper PMC11277097, “MRAP2a Binds and Modulates Activity and Localisation of Prokineticin Receptor 1 in Zebrafish” (International Journal of Molecular Sciences, 2024).

Data set [1] concerns the molecule itself. Briefly: SDS-PAGE; purified zCT-MRAP2a, electrophoresis under denaturing conditions.
Data set [2] concerns the molecule itself. As to the kind of experiment: native gel or EMSA; blue native PAGE, 20 ug purified CT-MRAP2 domain on Native PAGE Novex 3% to 16% Bis-Tris gels, 0 °C; blot with anti-His.

B1: C-terminal domain of zebrafish MRAP2a, His-tagged (zCT-MRAP2a) (domain or fragment, UniProt F8W4H9 73-217, looked up)
chain: EAAEPYEKRMRLTSCADGLGRQRETDGRTGLSRPLLEESRSLFHCYINEEEREGGRAATDAGALTHGRSGIGNSRGQVEEVGLVVQNMVLESRAEREAALLAHFNIPNFVNSELNSALGDEDLLLGDPPIIMEEARPRCTHHIID
notes: zebrafish MRAP2a, C-terminal domain, the region from residue 73 to residue 217 encoded by the third exon; cloned by PCR from plasmid XM_021473026.1 into pet28; also called zCT-MRAP2a domain; pet 28zCT-MRAP2; source: E. coli, purified (His-tagged protein purification kit)
Take B1: the “stoichiometry N” value in data set [1] is 2; in data set [2], roughly 2.

One may read the stoichiometry N as the number of molecules, sites or subunits per partner or assembly.
